Article PMC7294946

Target: PRMT1 (UniProt Q99873)
Assay: co-IP with Flag antibody, western blot
Details: reference: Flag-RUNX1 wild type; sites T207

## RUNX1 (from UniProt Q01196) Flag-RUNX1 T207A
  binding against the reference: weaker
